# In patent publication US20070099268A1, “Chimeric HCN channels” (priority 2005, published 2007):
# Entries after “also recorded” stand apart in the source; their conditions may differ.
# Assays:
# [1] = system: Xenopus oocytes; assay: Two-microelectrode voltage clamp of mHCN2 and mE324A expressed in Xenopus oocytes; type: cell-based, Xenopus laevis
# Description: Oocytes were prepared from mature female Xenopus laevis in accordance with an approved protocol as previously described (Yu et al., 2004).
# For expression of HCN in Xenopus oocytes, oocytes were injected with 5 ng of cRNA made from mouse wild-type mHCN2 and mutant mHCN2 (E324A) plasmids. Injected oocytes were incubated at 18° C. for 24-48 h prior to electrophysiological analysis.
# For measurements in Xenopus oocytes, oocytes were voltage-clamped using a two-microelectrode voltage clamp technique. The extracellular recording solution (OR2) contained (in mM): NaCl, 80; KCl, 2; MgCl2, 1; and Na-HEPES, 5 (pH 7.6). For the recording of steady state activation of expressed Wt mHCN2, currents were elicited by 2-s long hyperpolarizing pulses between −30 mV and −160 mV with 10 mV increments, followed by a 1-s depolarizing pulse to +15 mV. The holding potential was −30 mV. As to the mHCN2 (E324A), currents were elicited by 3-s-long hyperpolarizing pulses between +20 mV and −130 mV with 10 mV increments, followed by a 1 second depolarizing pulse to +50 mV. The holding potential was +20 mV. To construct the current/voltage relationship for wildtype (Wt) mHCN2, the cell was held at […], the current was elicited by a 2-s hyperpolarizing voltage step to −140 mV to saturate activation, and followed by 2-s depolarizing voltage steps between […] and +50 mV in 10 mV increments. For mHCN2 (E324A), the cell was held at +20 mV, current was elicited by a 1.5-s hyperpolarizing voltage step to −110 mV to saturate activation, and then followed by 1.5-s depolarizing voltage steps between −80 mV and +50 mV in 10 mV increments for the recording of tail currents. To record the current amplitudes for Wt mHCN2, the current was evoked by applying a 3-s hyperpolarizing voltage pulse to −120 mV from a holding potential of −30 mV. For mHCN2 (E324A), the current was evoked by applying a 3-s hyperpolarizing voltage pulse to −120 mV from a holding potential of +20 mV.
# [2] = system: cell-free patches from Xenopus oocytes; details: cited from earlier work
# [3] = system: neonatal ventricular myocytes; assay: Voltage clamp (tail currents) of HCN2 expressed with AdHCN2 in neonatal ventricular myocytes; type: cell-based, rat
# Description: For increased expression efficiency, an adenoviral construct for mHCN2 was prepared. Gene delivery and transfer procedures followed previously published methods (Ng et al., 2000; He et al., 1998). A DNA fragment (between EcoRI and XbaI restriction sites) that included mHCN2 DNA downstream of the CMV promoter was obtained from plasmid pTR-mHCN2 (Santoro and Tibbs, 1999) and subcloned into the shuttle vector pDC516 (AdMax™; Microbix Biosystems, Toronto, Canada). The resulting pDC516-mHCN2 shuttle plasmid was co-transfected with a 35.5 kb El-deleted Ad genomic plasmid pBHGΔE1,3FLP (AdMax™) into El-complementing HEK293 cells. […]
# The whole-cell voltage clamp technique was employed to record native If or expressed IHCN2 or IHCN4. Action potentials were recorded in current clamp mode, again using a whole cell patch electrode. […]
# The activation relation of the native or expressed current can be determined from the steady-state I-V relation. In this case, the reversal potential (Vf) was separately determined from the fully activated I-V relation (Accili et al., 1991) and used to generate the activation relation (y=I/(gmax*(V−Vf)), where gmax is the maximal conductance). […] Tail currents were measured at a negative voltage (−125 mV) to avoid contamination by transient outward and other currents at less negative voltages. […]
# [4] = system: oocyte; details: cited from earlier work
# [5] = system: mammalian expression systems; details: cited from earlier work
molecule,measurement,setting,value
"mHCN2: mouse HCN2 hyperpolarization-activated, cyclic nucleotide-gated channel, wild type (GenBank AJ225122) (protein) MDARGGGGRPGDSPGTTPAPGPPPPPPPPAPPQPQPPPAPPPNPTTPSHPESADEPGPRARLCSRDSACTPGAAKGGANGECGRGEPQCSPEGPARGPKVSFSCRGAASGPSAAEEAGSEEAGPAGEPRGSQASFLQRQFGALLQPGVNKFSLRMFGSQKAVEREQERVKSAGAWIIHPYSDFRFYWDFTMLLFMVGNLIIIPVGITFFKDETTAPWIVFNVVSDTFFLMDLVLNFRTGIVIEDNTEIILDPEKIKKKYLRTWFVVDFVSSIPVDYIFLIVEKGIDSEVYKTARALRIVRFTKILSLLRLLRLSRLIRYIHQWEEIFHMTYDLASAVMRICNLISMMLLLCHWDGCLQFLVPMLQDFPSDCWVSINNMVNHSWSELYSFALFKAMSHMLCIGYGRQAPESMTDIWLTMLSMIVGATCYAMFIGHATALIQSLDSSRRQYQEKYKQVEQYMSFHKLPADFRQKIHDYYEHRYQGKMFDEDSILGELNGPLREEIVNFNCRKLVASMPLFANADPNFVTAMLTKLKFEVFQPGDYIIREGTIGKKMYFIQHGVVSVLTKGNKEMKLSDGSYFGEICLLTRGRRTASVRADTYCRLYSLSVDNFNEVLEEYPMMRRAFETVAIDRLDRIGKKNSILLHKVQHDLSSGVFNNQENAIIQEIVKYDREMVQQAELGQRVGLFPPPPPPQVTSAIATLQQAVAMSFCPQVARPLVGPLALGSPRLVRRAPPGPLPPAASPGPPAASPPAAPSSPRAPRTSPYGVPGSPATRVGPALPARRLSRASRPLSASQPSLPHGVPAPSPAASARPASSSTPRLGPAPTARTAAPSPDRRDSASPGAASGLDPLDSARSRLSSNL",voltage at which currents saturated,[1],around −130 mV
same,slope (s) with cAMP,[1]; 8-Br-cAMP 1 mM,9.5 mV
same,Vh with cAMP,[1]; 8-Br-cAMP 1 mM extracellular,−84.9 mV
same,effect of Cs+ on inward current,[1]; Cs+ 5 mM,blocked; also recorded: large inhibition
same,"slope (s), control",[1]; control,13.9 mV
same,activation more negative than mE324A,[1]; oocytes,35 mV
same,"half maximal activation (Vh), control","[1]; oocytes, control",−92.7 mV
same,induced current,[1]; single voltage pulse to −120 mV,912.7±63.7 nA
same,shift of activation curve to more positive potentials by cAMP,[2]; binding of cAMP to the CNBD,17 mV
same,steady-state activation curve more hyperpolarized than that of HCN1,[2],20 mV
same,"shift of voltage dependence by saturating cAMP, neonate",[3]; 10 μM cAMP in the pipette,17 mV
same,"slope factor (K), neonatal myocytes",[3]; AdHCN2,9.8±0.6 mV
same,midpoint of activation,[4],−78 mV
same,midpoint of activation reported in other mammalian expression studies,[5],−83 to −97 mV
